# Test results reported in publication PMC12239813.
# Molecular target: human FLT3 receptor (human) (UniProt P36888)
# Assay: SPR
# Chain of UniProt P36888 (P36888 27-993): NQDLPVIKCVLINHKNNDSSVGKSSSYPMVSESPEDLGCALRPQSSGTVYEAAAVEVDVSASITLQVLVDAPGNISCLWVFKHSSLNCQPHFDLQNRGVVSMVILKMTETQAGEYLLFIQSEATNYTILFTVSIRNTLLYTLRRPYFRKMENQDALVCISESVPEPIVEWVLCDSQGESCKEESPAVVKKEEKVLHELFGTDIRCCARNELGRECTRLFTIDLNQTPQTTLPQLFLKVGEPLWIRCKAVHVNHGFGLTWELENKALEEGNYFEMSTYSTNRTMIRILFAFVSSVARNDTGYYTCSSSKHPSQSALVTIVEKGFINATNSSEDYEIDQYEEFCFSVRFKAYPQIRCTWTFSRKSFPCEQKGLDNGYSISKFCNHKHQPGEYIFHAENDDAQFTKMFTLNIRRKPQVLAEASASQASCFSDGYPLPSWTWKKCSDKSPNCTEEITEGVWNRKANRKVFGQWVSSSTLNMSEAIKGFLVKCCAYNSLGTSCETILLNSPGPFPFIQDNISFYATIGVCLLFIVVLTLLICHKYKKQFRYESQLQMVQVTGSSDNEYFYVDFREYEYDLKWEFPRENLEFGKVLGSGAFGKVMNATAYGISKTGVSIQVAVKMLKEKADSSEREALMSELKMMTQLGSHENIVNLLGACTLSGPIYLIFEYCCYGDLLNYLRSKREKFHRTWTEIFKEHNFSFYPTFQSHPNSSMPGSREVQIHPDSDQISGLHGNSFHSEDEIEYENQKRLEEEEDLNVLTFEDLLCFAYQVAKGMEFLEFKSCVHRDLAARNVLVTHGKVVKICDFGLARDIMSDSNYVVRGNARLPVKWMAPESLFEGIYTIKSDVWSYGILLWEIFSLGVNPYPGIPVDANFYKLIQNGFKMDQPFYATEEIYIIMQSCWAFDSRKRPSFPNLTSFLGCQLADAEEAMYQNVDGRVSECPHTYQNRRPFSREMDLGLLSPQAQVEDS
substance,measurement,value
human FLT3L protein (from UniProt P49771 27-184) (ligand),Kd,22.3 nM
same,koff,0.812 s⁻¹
